Format in all cases: cell-based, human
In data set [1] the test system is CYP3A4. Briefly: CYP3A4 mRNA expression by RT-qPCR in spheroid-shaped FLC-4 cells (example, MICRO-SPACE). To be noted: EGF 10 ng/mL, drug-free vs cytokine-free and drug-free; FIG. 20. From the text: (§1) A plurality of culture chambers 10a are formed on the bottom culture surface of each well 21a. Each culture chamber 10a includes culture rooms 11a each having the equivalent diameter D of 200 μm and the height H of 100 μm. The width W of each wall 12a is 10 μm.
(§2) As cells to be cultured, FLC-4 cells which are established hepatocyte cell lines […] were used.
As a culture medium, a DMEM/F 12 culture medium containing 10% fetal bovine serum (FBS) was used. A cell suspension was adjusted at a cell seeding density of 16×10^5 cells/mL.
The cells were cultured in a CO2 incubator for 10 to 11 days. The culture medium was replaced once every three days.
(§3) The total amount of old culture medium was removed from each well by using a pipette (culture medium removing process).
A test solution or a control solution was added to each well (test solution addition process).
The cells were incubated in a CO2 incubator for eight hours, 24 hours, or 48 hours at 37° C. (contact process). […]
The analysis was made using a total amount of 20 μL of reaction liquid containing 9.6 μL of EagleTaq Master Mix with ROX (Roche, Branchburg, N.J., USA), 0.96 μL of 20× Assays-on-Demand™ Gene Expression Assay Mix (Applied Biosystems), 7.1 μL of sterilized MiliQ water, and 1.8 μL of cDNA diluted by a factor of 5, and the reaction liquid was measured by Real-time PCR.
Background: Quantitative PCR measures a nucleic acid by following its amplification.

In data set [2] the test system is CYP3A4. Briefly: Amount of CYP3A4 protein by western blotting in spheroid-shaped FLC-4 cells (example, MICRO-SPACE).
Text: as §1, §2
(§4) Epidermal Growth Factor (EFG) was used as the cytokine.
(§5) DMEM/F12 (DMEM/E12 FBS(−)) containing no serum was used as a solvent for each test solution.
(§6) To study the cytokine concentrations of the second and third test solutions, test solutions respectively having EGF concentrations of 0.1 ng/mL, 1 ng/mL, and 10 ng/mL were prepared. Note that the cells were cultured in each test solution in advance to obtain a cell survival rate, and it was confirmed that the cell survival rate at these concentrations was 80% or more.
The total amount of old culture medium was removed from each well by using a pipette (culture medium removing process). […]
(§7) The cells corresponding to three to six wells were sonicated by a Lysis buffer containing 0.1% protease inhibitor cocktail and 1 mM PMSF (Phenylmethyl sulfonyl fluoride). […] ImmunoStar LD (Wako Pure Chemical Industries, Ltd.) was used as protein and was detected using LAS-1000 plus (Fujifilm, Tokyo).
Background: In western blotting, separated proteins are transferred to a membrane and probed.

The subject of data set [3] is CYP3A4. Briefly: Amount of CYP3A4 protein by western blotting in FLC-4 cells on flat 24-well plate (comparative example, CONFLUENT). On the procedure: As the culture chamber, a commercially-available 24-well plate having a flat culture surface was used. The cell culture grade was used as the grade for the culture plate.
Except for the above-mentioned conditions, the comparative example was carried out under the same conditions as those for the example.
as §4, §5, §6, §3
Each test solution for studying the cytokine concentration was added to each well (test solution addition process). […]
as §7

The subject of another data set is FLC-4 cells. In words: Cell survival rate of cells cultured in cytokine test solutions. To be noted: EGF concentrations of 0.1, 1 and 10 ng/mL. On the procedure: as §6
The mark [4] stands for this setting: EGF 0, 0.1, 1, 10 ng/mL, western blotting.

B1: Epidermal Growth Factor (protein, UniProt P01133 23-1207, looked up)
Pro-epidermal growth factor: PQHWSCPEGTLAGNGNSTCVGPAPFLIFSHGNSIFRIDTEGTNYEQLVVDAGVSVIMDFHYNEKRIYWVDLERQLLQRVFLNGSRQERVCNIEKNVSGMAINWINEEVIWSNQQEGIITVTDMKGNNSHILLSALKYPANVAVDPVERFIFWSSEVAGSLYRADLDGVGVKALLETSEKITAVSLDVLDKRLFWIQYNREGSNSLICSCDYDGGSVHISKHPTQHNLFAMSLFGDRIFYSTWKMKTIWIANKHTGKDMVRINLHSSFVPLGELKVVHPLAQPKAEDDTWEPEQKLCKLRKGNCSSTVCGQDLQSHLCMCAEGYALSRDRKYCEDVNECAFWNHGCTLGCKNTPGSYYCTCPVGFVLLPDGKRCHQLVSCPRNVSECSHDCVLTSEGPLCFCPEGSVLERDGKTCSGCSSPDNGGCSQLCVPLSPVSWECDCFPGYDLQLDEKSCAASGPQPFLLFANSQDIRHMHFDGTDYGTLLSQQMGMVYALDHDPVENKIYFAHTALKWIERANMDGSQRERLIEEGVDVPEGLAVDWIGRRFYWTDRGKSLIGRSDLNGKRSKIITKENISQPRGIAVHPMAKRLFWTDTGINPRIESSSLQGLGRLVIASSDLIWPSGITIDFLTDKLYWCDAKQSVIEMANLDGSKRRRLTQNDVGHPFAVAVFEDYVWFSDWAMPSVMRVNKRTGKDRVRLQGSMLKPSSLVVVHPLAKPGADPCLYQNGGCEHICKKRLGTAWCSCREGFMKASDGKTCLALDGHQLLAGGEVDLKNQVTPLDILSKTRVSEDNITESQHMLVAEIMVSDQDDCAPVGCSMYARCISEGEDATCQCLKGFAGDGKLCSDIDECEMGVPVCPPASSKCINTEGGYVCRCSEGYQGDGIHCLDIDECQLGEHSCGENASCTNTEGGYTCMCAGRLSEPGLICPDSTPPPHLREDDHHYSVRNSDSECPLSHDGYCLHDGVCMYIEALDKYACNCVVGYIGERCQYRDLKWWELRHAGHGQQQKVIVVAVCVVVLVMLLLLSLWGAHYYRTQKLLSKNPKNPYEESSRDVRSRRPADTEDGMSSCPQPWFVVIKEHQDLKNGGQPVAGEDGQAADGSMQPTSWRQEPQLCGMGTEQGCWIPVSSDKGSCPQVMERSFHMPSYGTQTLEGGVEKPHSLLSANPLWQQRALDPPHQMELTQ
modifications: Pro-epidermal growth factor
notes: Epidermal Growth Factor used as the cytokine
Turning to B1, the “value of the metabolic function of CYP3A4 (mRNA expression level), second test solution versus first test solution” value with CYP3A4 [1] was “lower”. The “function of CYP3A4 (amount of CYP3A4 protein, bands), concentration dependency” value with CYP3A4 [2] (setting [4]) is “decreases depending on the concentration”; with CYP3A4 [3] (setting [4]) it was “the concentration dependency was not confirmed”. Also, the “amount of CYP3A4 protein, second test solution versus first test solution” value is “M0 is greater than M10” in the data set with CYP3A4 [2] (EGF 10 ng/mL (M10) vs 0 ng/mL (M0), FIG. 19); “C0 and C10 are nearly equal” with CYP3A4 [3] (EGF 10 ng/mL (C10) vs 0 ng/mL (C0), FIG. 19). Further, the cell survival rate in the data set with FLC-4 cells was no less than 80%.
